Reference: patent US20150232557A1 (APTEVO RESEARCH AND DEVELOPMENT, published 2015)

B1: TSC194 (huVL-VH#2 107-1A4 scFv-Fc-Cris7 scFv) (bispecific antibody)
chain: DIQMTQSPSAMSASVGDRVTITCRASKSISKYLAWFQQKPGKVPKLRIHSGSTLQSGVPSRFSGSGSGTEFTLTISSLQPEDFATYYCQQHIEYPWTFGQGTKVEIKRGGGGSGGGGSGGGGSQVQLVQSGAEVKKPGASVKVSCKASGYTFTDYYMHWVRQAPGQGLEWMGYFNPYNDYTRYAQKFQGRVTMTRDTSISTAYMELSSLRSDDTAVYYCARSDGYYDAMDYWGQGTTVTVSSSEPKSSDKTHTCPPCPAPEAAGAPSVFLFPPKPKDTLMISRTPEVTCVVVDVSHEDPEVKFNWYVDGVEVHNAKTKPREEQYNSTYRVVSVLTVLHQDWLNGKAYACAVSNKALPAPIEKTISKAKGQPREPQVYTLPPSRDELTKNQVSLTCLVKGFYPSDIAVEWESNGQPENNYKTTPPVLDSDGSFFLYSKLTVDKSRWQQGNVFSCSVMHEALHNHYTQKSLSLSPGQRHNNSSLNTGTQMAGHSPNSQVQLVQSGGGVVQPGRSLRLSCKASGYTFTRSTMHWVRQAPGKGLEWIGYINPSSAYTNYNQKFKDRFTISADKSKSTAFLQMDSLRPEDTGVYFCARPQVHYDYNGFPYWGQGTPVTVSSGGGGSGGGGSGGGGSAQDIQMTQSPSSLSASVGDRVTMTCSASSSVSYMNWYQQKPGKAPKRWIYDSSKLASGVPARFSGSGSGTDYTLTISSLQPEDFATYYCQQWSRNPPTFGGGTKLQITR
B2: humanized TSC249 Scorpion (huVL-VH#2 107-1A4 scFv-Fc-DRA222 scFv) (bispecific antibody)
chain: DIQMTQSPSAMSASVGDRVTITCRASKSISKYLAWFQQKPGKVPKLRIHSGSTLQSGVPSRFSGSGSGTEFTLTISSLQPEDFATYYCQQHIEYPWTFGQGTKVEIKRGGGGSGGGGSGGGGSQVQLVQSGAEVKKPGASVKVSCKASGYTFTDYYMHWVRQAPGQGLEWMGYFNPYNDYTRYAQKFQGRVTMTRDTSISTAYMELSSLRSDDTAVYYCARSDGYYDAMDYWGQGTTVTVSSSEPKSSDKTHTCPPCPAPEAAGAPSVFLFPPKPKDTLMISRTPEVTCVVVDVSHEDPEVKFNWYVDGVEVHNAKTKPREEQYNSTYRVVSVLTVLHQDWLNGKAYACAVSNKALPAPIEKTISKAKGQPREPQVYTLPPSRDELTKNQVSLTCLVKGFYPSDIAVEWESNGQPENNYKTTPPVLDSDGSFFLYSKLTVDKSRWQQGNVFSCSVMHEALHNHYTQKSLSLSPGQRHNNSSLNTGTQMAGHSPNSQVQLVESGGGVVQPGRSLRLSCKASGYTFTRSTMHWVRQAPGQGLEWIGYINPSSAYTNYNQKFKDRFTISADKSKSTAFLQMDSLRPEDTGVYFCARPQVHYDYNGFPYWGQGTPVTVSSGGGGSGGGGSGGGGSAQDIQMTQSPSSLSASVGDRVTMTCSASSSVSYMNWYQQKPGKAPKRWIYDSSKLASGVPARFSGSGSGTDYTLTISSLQPEDFATYYCQQWSRNPPTFGGGTKLQITSSS
notes: also called anti-PSMA x anti-CD3 bispecific polypeptide homodimer
B3: TSC228 (HD37 x DRA222 scFv heterodimer) (bispecific antibody)
chain 1: DIVLTQSPASLAVSLGQRATISCKASQSVDYDGDSYLNWYQQIPGQPPKLLIYDASNLVSGIPPRFSGSGSGTDFTLNIHPVEKVDAATYHCQQSTEDPWTFGGGTKLEIKGGGGSGGGGSGGGGASQVQLQQSGAELVRPGSSVKISCKASGYAFSSYWMNWVKQRPGQGLEWIGQIWPGDGDTNYNGKFKGKATLTADESSSTAYMQLSSLASEDSAVYFCARRETTTVGRYYYAMDYWGQGTSVTVSSSEPKSSDKTHTCPPCPAPEAAGAPSVFLFPPKPKDTLMISRTPEVTCVVVDVSHEDPEVKFNWYVDGVEVHNAKTKPREEQYNSTYRVVSVLTVLHQDWLNGKAYACAVSNKALPAPIEKTISKAKGQPREPQVYTLPPSRDELTKNQVSLTCLVKGFYPSDIAVEWESNGQPENNYKTTPPVLDSDGSFFLYSKLTVDKSRWQQGNVFSCSVMHEALHNHYTQKSLSLSPGKSRASTKGPSVFPLAPSSKSTSGGTAALGCLVKDYFPEPVTVSWNSGALTSGVHTFPAVLQSSGLYSLSSVVTVPSSSLGTQTYICNVNHKPSNTKVDKKV
chain 2: QVQLVESGGGVVQPGRSLRLSCKASGYTFTRSTMHWVRQAPGQGLEWIGYINPSSAYTNYNQKFKDRFTISADKSKSTAFLQMDSLRPEDTGVYFCARPQVHYDYNGFPYWGQGTPVTVSSGGGGSGGGGSGGGGSAQDIQMTQSPSSLSASVGDRVTMTCSASSSVSYMNWYQQKPGKAPKRWIYDSSKLASGVPARFSGSGSGTDYTLTISSLQPEDFATYYCQQWSRNPPTFGGGTKLQITSSSEPKSSDKTHTCPPCPAPEAAGAPSVFLFPPKPKDTLMISRTPEVTCVVVDVSHEDPEVKFNWYVDGVEVHNAKTKPREEQYNSTYRVVSVLTVLHQDWLNGKAYACAVSNKALPAPIEKTISKAKGQPREPQVYTLPPSRDELTKNQVSLTCLVKGFYPSDIAVEWESNGQPENNYKTTPPVLDSDGSFFLYSKLTVDKSRWQQGNVFSCSVMHEALHNHYTQKSLSLSPGKSRTVAAPSVFIFPPSDEQLKSGTASVVCLLNYFYPREAKVQWKVDNALQSGNSQESATEQDSKDSTYSLSSELTLSKADYEKHKVYACEVTHQGLSSPVTKSFNRGE
notes: TSC049 is HD37 scFv-hinge-CH2-CH3-CH1; TSC222 is DRA222 scFv-hinge-CH2-CH3-CK(YAE); also called anti-CD19 x anti-CD3 bispecific polypeptide heterodimer; TSC049 + TSC222

Key:
CD3 [1] = target: T1, CD3 (human, UniProt P07766 23-207); assay: cell-based or functional assay
CD3 [2] = target: T1, CD3; assay: flow cytometry on Jurkat (CD3+) cells, goat anti-human IgG-FITC detection
Procedure: Jurkat (CD3⁺) T cell leukemia cells were obtained from ATCC (Manassas, Va.), and cultured according to the protocol provided by ATCC. Binding was assessed by incubating 5×10⁵ Jurkat cells for 30 minutes at 4° C. with serially diluted bispecific molecules TSC228 or TSC249, in concentrations from 250 nM to 0.125 nM (TSC249) or 125 nM to 1 pM (TSC228). The cells were washed three times and then incubated with goat anti-human IgG-FITC (1:200 dilution) for another 30 minutes at 4° C. The cells were then washed again three times, fixed in 1% paraformaldehyde and read on a FACS-Calibur instrument.

T1 sequence (P07766 23-207): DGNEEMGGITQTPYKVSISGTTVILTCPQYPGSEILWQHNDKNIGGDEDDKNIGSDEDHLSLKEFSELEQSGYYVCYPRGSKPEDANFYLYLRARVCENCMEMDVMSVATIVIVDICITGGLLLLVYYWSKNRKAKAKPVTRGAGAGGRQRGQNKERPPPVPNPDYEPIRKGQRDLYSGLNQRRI

Binder | EC50 for RTCC (CD3 [1]) | EC50 (CD3 [2])
B1 | 2.8 pM | 
B2 | 2.9 pM | 1900 pM
B3 |  | 24500 pM
